Molecular target: HIV-1 envelope glycoprotein gp120 (UniProt P04578)

## trypsin
  saturability of trypsin-catalyzed gp120 cleavage with gp120 concentration: nonsaturable at concentrations up to 1 µM

Source: patent US7960364
